{"source": "patent US20230183713A1", "about": "“SITE-SPECIFIC RECOMBINASES FOR EFFICIENT AND SPECIFIC GENOME EDITING” (TECHNISCHE UNIVERSITÄt DRESDEN, published 2023)", "proteins": {"B1": {"name": "Cre recombinase monomer with R173L mutation (protein)", "chain": "MSNLLTVHQNLPALPVDATSDEVRKNLMDMFRDRQAFSEHTWKMLLSVCRSWAAWCKLNNRKWFPAEPEDVRDYLLYLQARGLAVKTIQQHLGQLNMLHRRSGLPRPSDSNAVSLVMRRIRKENVDAGERAKQALAFERTDFDQVRSLMENSDRCQDIRNLAFLGIAYNTLLLIAEIARIRVKDISRTDGGRMLIHIGRTKTLVSTAGVEKALSLGVTKLVERWISVSGVADDPNNYLFCRVRKNGVAAPSATSQLSTRALEGIFEATHRLIYGAKDDSGQRYLAWSGHSARVGAARDMARAGVSIPEIMQAGGWTNVNIVMNYIRNLDSETGAMVRLLEDGD"}, "B2": {"name": "Cre recombinase monomer with R173T mutation (protein)", "chain": "B1 chain with L173T"}, "B3": {"name": "Cre recombinase monomer with R173S mutation (protein)", "chain": "B1 chain with L173S"}, "B4": {"name": "Cre recombinase monomer with R173N mutation (protein)", "chain": "B1 chain with L173N"}}, "key": {"[1]": {"target": "T1, Cre recombinase monomer with K201F mutation", "T1 chain": "B1 chain with L173R, K201F"}, "[2]": {"target": "T2, Cre recombinase monomer with Y324N mutation", "T2 chain": "B1 chain with L173R, Y324N"}, "[3]": {"target": "T3, Cre recombinase monomer with W315M mutation", "T3 chain": "B1 chain with L173R, W315M"}, "[4]": {"target": "T4, Cre recombinase monomer with E176H mutation", "T4 chain": "B1 chain with L173R, E176H"}, "[5]": {"target": "T5, Cre recombinase monomer with Q311R mutation", "T5 chain": "B1 chain with L173R, Q311R"}, "[6]": {"target": "T6, Cre recombinase monomer with E176I mutation", "T6 chain": "B1 chain with L173R, E176I"}, "[7]": {"target": "T7, Cre recombinase monomer with K201W mutation", "T7 chain": "B1 chain with L173R, K201W"}, "[8]": {"target": "T8, Cre recombinase monomer with E176V mutation", "T8 chain": "B1 chain with L173R, E176V"}, "[9]": {"target": "T9, Cre recombinase monomer with Y324E mutation", "T9 chain": "B1 chain with L173R, Y324E"}, "[10]": {"target": "T10, Cre recombinase monomer with W315I mutation", "T10 chain": "B1 chain with L173R, W315I"}, "[11]": {"target": "T11, Cre recombinase monomer with R292W mutation", "T11 chain": "B1 chain with L173R, R292W"}, "[12]": {"target": "T12, Cre recombinase monomer with Y324M mutation", "T12 chain": "B1 chain with L173R, Y324M"}}, "note": "Residue numbers refer to the chain shown, from its start. Numbers in names are those of the source."}
{"protein": "B1", "values": [{"measurement": "Median dimer activity (recombination on loxP)", "setting": "[1]", "value": 41, "unit": "%"}, {"measurement": "Median dimer activity (recombination on loxP)", "setting": "[2]", "value": 88, "unit": "%"}, {"measurement": "Median dimer activity (recombination on loxP)", "setting": "[3]", "value": 63, "unit": "%"}, {"measurement": "Median dimer activity (recombination on loxP)", "setting": "[4]", "value": 66, "unit": "%"}, {"measurement": "Median dimer activity (recombination on loxP)", "setting": "[5]", "value": 94, "unit": "%"}]}
{"protein": "B2", "values": [{"measurement": "Median dimer activity (recombination on loxP)", "setting": "[6]", "value": 72, "unit": "%"}, {"measurement": "Median dimer activity (recombination on loxP)", "setting": "[7]", "value": 91, "unit": "%"}, {"measurement": "Median dimer activity (recombination on loxP)", "setting": "[8]", "value": 65, "unit": "%"}, {"measurement": "Median dimer activity (recombination on loxP)", "setting": "[4]", "value": 56, "unit": "%"}, {"measurement": "Median dimer activity (recombination on loxP)", "setting": "[5]", "value": 92, "unit": "%"}]}
{"protein": "B3", "values": [{"measurement": "Median dimer activity (recombination on loxP)", "setting": "[8]", "value": 49, "unit": "%"}, {"measurement": "Median dimer activity (recombination on loxP)", "setting": "[5]", "value": 97, "unit": "%"}, {"measurement": "Median dimer activity (recombination on loxP)", "setting": "[9]", "value": 59, "unit": "%"}]}
{"protein": "B4", "values": [{"measurement": "Median dimer activity (recombination on loxP)", "setting": "[10]", "value": 38, "unit": "%"}, {"measurement": "Median dimer activity (recombination on loxP)", "setting": "[11]", "value": 44, "unit": "%"}, {"measurement": "Median dimer activity (recombination on loxP)", "setting": "[12]", "value": 51, "unit": "%"}, {"measurement": "Median dimer activity (recombination on loxP)", "setting": "[5]", "value": 96, "unit": "%"}]}
